According to patent US20250051443A1 (NATIONAL RESEARCH COUNCIL OF CANADA, published 2025):

Key:
human CD3 [1] = target: T1, human CD3 (human, UniProt P07766 23-207; P09693 23-182; P04234 22-171); assay: apparent KD (KDapp), flow cytometry titration on Jurkat cells
T1 construct: whole, on cells; also called CD3 on Jurkat T cells; CD3 on primary human T cells
Protocol: Unless otherwise stated, all media are kept are 4° C. and all incubations are performed on wet ice. Exponentially growing Jurkat cells were centrifuged and resuspended in complete medium at a cell density of 2×10⁶ cells/mL. Fifty μL/well of cells were distributed in a polypropylene v-bottom 96 well plate and serial 1/3 dilutions of purified mAbs starting at 300 nM were added and incubated for 2 hours. Cells were washed twice by centrifugation and further incubated with a FITC labeled F(ab′)2 goat anti-mouse antibody (Fc specific, #115-096-071, Jackson Immunoresearch, Cedarlane, Burlington, ON) for an hour. Cells were washed and re-suspended in medium containing Propidium iodide to exclude dead cells from analysis. Samples were filtered through a 60 μm nylon mesh filter plate (Millipore, Ireland) to remove cell aggregates. Flow cytometry analyses were performed on 2,000 viable single-cells events gated on forward scattering, side scattering parameters and propidium iodide dye exclusion using a BD-LSRFortessa flow cytometer (Becton-Dickinson Biosciences, CA, USA) and a standard filter set using BD FACSDiva™ acquisition software, according to manufacturer's instructions.

human CD3 [2] = target: T1, human CD3; assay: apparent KD (KDapp), flow cytometry titration on purified primary human T cells
Protocol: The binding characteristics of the purified anti-CD3 mAbs were assessed in titration studies on purified human primary T cells from different donor samples. Fresh ex vivo peripheral blood mononuclear cells (PBMCs) were obtained via density centrifugation over Ficoll-Paque using standard procedures and untouched T cell fractions obtained from PBMCs by negative pan-T cell selection and magnetic cell sorting. Starting from 300 nM concentrations of the anti-CD3 mAbs, eight point binding curves were generated from the resultant mean fluorescence intensity (MFI) values obtained through detection of labelled secondary antibody to bound CD3 in flow cytometry experiments (FIGS. 3A and 3B). Both commercial mouse anti-human CD3 mAb (OKT-3; Biolegend) and an in house generated IgG1 version of OKT-3 were employed as positive controls together with a non-specific mouse IgG serving as a negative binding control. Following curve fit analysis using one-site specific binding with Hill slope, the KDapp (concentration needed to achieve a half-maximum binding at equilibrium) for each mAb was calculated (Table 2).
Eight point binding titrations were performed with the anti-CD3 mAbs starting at either 300 or 100 nM on freshly purified human T cells obtained through negative selection from PBMC fractions. Briefly, 1×10⁵ human T cells (50 μL of staining buffer (SB; PBS/1% BSA/0.01% NaN3) were incubated with graded dilutions of the anti-CD3 mAbs in SB ([…]) for 2 hours at 4° C. in 96 w U-bottom plates, followed by plate washing with SB ([…]). Cell pellets were resuspended with 25 μL of a 0.25 mg/mL solution of the goat (Fab′)₂ anti-mouse IgG (H+L)− APC secondary antibody in SB, incubated at 4° C. (30 min.), washed 1× with SB, and resuspended for flow analysis. Recombinant anti-human OKT-3 IgG2b (in house produced) and non-specific mIgG were employed similarly as positive and negative controls respectively. 10K live events were acquired on a BD LSRFortessa flow analyzer and mean fluorescence intensities (MFI) calculated after subtraction of secondary antibody alone values. Using GraphPad Prism software, the data were analyzed using a one site specific binding with Hill slope non-linear regression model to calculate KDapp and BMax values (See Table 2).

human CD3 [3] = target: T1, human CD3; assay: cell-based or functional assay
human CD3 [4] = target: T1, human CD3; assay: flow cytometry, hybridoma supernatant on CD3+ Jurkat cells
Protocol: Cells were stained with either negative control mouse IgG (Jackson Immunoresearch cat #115-000-003) or an anti-GFP 3E6 mAb supernatant or tested hybridoma supernatant. Specific binding was reflected by the increase in the mean fluorescent intensity of antibody binding to Jurkat T-cells (FIGS. 1A to 1F, grey histograms) compared to the Jurkat CD3 negative cell line J.RT3-T3.5 (FIGS. 1A to 1F, open histograms). AF488 labeled positive control mAb OKT3 was also analyzed.

human CD3 [5] = target: T1, human CD3; assay: flow competition on Jurkat, 100 nM unlabeled mAb; competitor AF488-SP34.2 20 nM
Protocol: (§1) In order to evaluate whether anti-CD3 monoclonal antibodies bind to the same epitope region, flow cytometry competition experiments on Jurkat cells were performed.
(§2) To that effect, a fixed concentration of the indicated AF488-labeled mAb were incubated with 100 nM of unlabeled monoclonal antibodies to assess if their binding capacity was impaired in presence of unlabeled mAbs. […] The AF488-OKT3 mIgG2b was labeled in-house using AlexaFluor488 protein labelling kit (Invitrogen #A10235) following manufacturer's instruction. The free dye removal step was done using Zeba™ Spin Desalting Columns, 7K MWCO (Thermo Scientific #89890). The final product was analyzed by UPLC-SEC to ensure the integrity of the labeled mAb.

human CD3 [6] = target: T1, human CD3; assay: cell-based or functional assay; remark: listed apart in the source
human CD3 [7] = target: T1, human CD3; assay: flow competition on Jurkat, 100 nM unlabeled mAb; competitor AF488-SK7 1.5 nM
Protocol: as §1, §2

human CD3 [8] = target: T1, human CD3; assay: flow competition on Jurkat, 100 nM unlabeled mAb; competitor AF488-OKT-3 mIgG2b 1.5 nM
Protocol: as §1, §2

human CD3 [9] = target: T1, human CD3; assay: flow competition on Jurkat, 100 nM unlabeled mAb; competitor AF488-UCHT1 5 nM
Protocol: as §1, §2

Kd (human CD3 [1]) [nM] | Kd (human CD3 [2]) [nM] | % max ref. OKT3 (dTomato activation) (human CD3 [3]) [%] | EC50 of dTomato induction (CD69 promoter), Jurkat-CD69-dTomato cells, 24 h (human CD3 [3]) [µg/mL] | MFI (human CD3 [4]) [MFI] | % residual fluorescence of labeled mAb (human CD3 [5]) [%] | IC50, indirect ADC surrogate growth inhibition (anti-mouse-DM1) on Jurkat cells (human CD3 [6]) [nM] | Span, indirect ADC surrogate growth inhibition on Jurkat cells (human CD3 [6]) [%] | % residual fluorescence of labeled mAb (human CD3 [7]) [%] | % residual fluorescence of labeled mAb (human CD3 [8]) [%] | % residual fluorescence of labeled mAb (human CD3 [9]) [%] | Binder
0.3 | 0.47 | 98 | 0.13 | 349 | 7 | 0.075 | 97 | 42 | 78 | 64 | F282-2D5 (antibody, V domains shown, also called F282-2D5-2) VH: QVQLQQPGTELVKPGASVKLSCKASGYTFTSYWMHWVKQRPGQGLEWIGNINPSNGGTNYNENFKTKATLTVDKSSSTAYMQLSSLTSEDSAVYYCARDRSGQYYFDYWGQGTTLTVSS VL: DIVMSQSPSSLAVSAGEKVTMSCKSSQSLLNSRTRKNYLAWYQQKPGQSPKLLIYWASTRESGVPDRFTGSGSGTDFTLTISSVQAEDLAVYYCIQSYHLRTFGGGTILEIK
0.3 | 0.4 | 104 | 0.16 | 319 | 6 | 0.031 | 95 | 42 | 77 | 69 | F332-1E2 (antibody, mouse IgG2a, V domains shown, Sister clone 8C5 shares the same entries; also called F332-1E2-2; F332-1E2 (8C5)) VH: QVQLQQPGAELGKPGTSVKLSCKASGYTFTSYWIHWVKQRPGQGLEWVGNINPNSGSINYNEKFKNKATLTVDKSSSTAYMQLSTLTSEDFAVYYCTRDTSGQYYFDYWGQGTTLTVSS VL: DIVMSQSPSSLAVSAGERVTMSCKSSQSLLNSRTRKNYLAWYQQKPGQSPKLLIYWASTRESGVPDRFTGSGSGTDFTLTISSVQAEDLAVYYCIQSYHLRTFGGGTKLEIK
0.8 | 0.46 | 86 | 0.25 | 247 | 10 | 0.072 | 96 | 44 | 89 | 73 | F332-6D7 (antibody, mouse IgG2a, V domains shown, also called F332-6D7-2; F332-6D7 (7G4)) VH: QVQLQQPGAELGKPGTSVNLSCKASGYTFTSYWMHWVKQRPGQGLDWIGNINPNSGTTNYNEKFKSKATLTVDKSSSTAYMQLSTLTSEDSAVYYCTRDISGQYYFDYWGQGTSLTVSS VL: DIVMSQSPSSLAVSAGEKVTMSCKSSQSLLNSRTRKNYLAWYQQKPGQSPKLLIYWASTRESGVPDRFTGSGSGTDFTLTISSVQAEDLAVYYCKQSYSLRTFGGGSKLEIK
0.5 | 1 | 84 | 0.11 | 297 | 11 | 0.05 | 94 | 45 | 79 | 76 | F332-3E9 (antibody, mouse IgG2a, V domains shown, also called F332-3E9-2; F332-3E9 (12G4)) VH: QVQLQQPGAELGKPGTSVKLSCKASGYTFTSYWIHWLKQRPGQGLEWIGNINPNGGSINCNEKFTTKATLTIDKSSSTAYMQLSTLTSEDFAVYYCTRDTSGQYYFDYWGQGTTLTVSS VL: DIMMSQSPSSLAVSAGEKVTMSCKSSQSLLNSRTRKNYLAWYQQKPGQSPKLLIYWASTRESGVPDRFTGSGSGTDFTLTISSVQAEDLAVYYCTQSYHLRTFGGGTKLEIK
0.5 | 0.94 | 94 | 0.2 | 277 | 12 | 0.072 | 94 | 45 | 89 | 76 | F332-1C9 (antibody, mouse IgG2a, V domains shown, Sister clones 1A10, 5H8, 8B11 share the same entries; also called F332-1C9-2; F332-1C9 (1A10, 5H8, 8B11)) VH: QVQLQQPGAELGKPGTSVNLSCKASGYTFTSYWMHWVKQRPGQGLDWIGNINPNSGTTNYNEKFKSKATLTVDKSSSTAYMQLSTLTSEDSAVYYCTRDISGQYYFDYWGQGTSLTVSS VL: DIVMSQSPSSLAVSAGEKVTMSCKSSQSLLNSRTRKNYLAWYQQKPGQSPKLLIYWASTRESGVPDRFTGSGSGTDFTLIISSVQAEDLAVYYCKQSYSLRTFGGGTKLEIK
0.5 | 0.53 | 87 | 0.18 | 398 | 9 | 0.038 | 92 | 44 | 78 | 76 | F332-4D6 (antibody, mouse IgG2a, V domains shown, also called F332-4D6-2; F322-4D6) VH: QVQLQQSGAELGKPGTSVKLSCKASGYTFTSYWIHWVKQRPGQGLEWIGNINPNSGSTNYNEKFKRKATLTADKSSSTAYMQLSTLTSEDFAVYYCTRDTSGQYYFDYWGQGTTLTVSS VL: DIVMSQSPSSLAVSAGEKVTMSCKSSQSLLNSRTRKNYLAWYQQKPGQSPKVLIYWASTRESGVPDRFTGSGSGTDFTLTISSVQAEDLAVYYCKQSYHLRTFGGGTKLEIK
